B1: TPR t1 (parent)
chain: GACCAAUCUGCCCUCAGAGCUCGAGAACAUCUUCGGAUGCAGAGGAGGCAGGCUUCGGUGGCGCGAUAGCGCCAACGUCCUCAACCUCCAAUGCAUCCCACCACAUGAUGAUGCCUGAAGAGCCUUGGUUUUUUG

Variants of: B1
Assay: polymerase ribozyme fitness, log enrichment relative to wild type (log ratio); higher = more active; in vitro selection for triplet polymerase activity
How it was run: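 PCR was used to build mutant libraries for each subunit of a heterodimeric triplet polymerase ribozyme, which were then transcribed. A single in vitro selection round, in triplicate, used a frozen incubation at −7 °C and recovered extended constructs by gel excision, streptavidin beads and RT-PCR. Fitness is the logarithm of genotype enrichment relative to wild-type enrichment, averaged over replicates with inverse-variance weights. The logarithm is base 2, and after Illumina sequencing only genotypes with ≥10 input reads and ≥1 read per output were kept.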

Point of comparison: C64A C88G G110U, “polymerase ribozyme fitness (log ratio)” value -6.03. Against it:
- C70U A90G U106A — higher, 0.297
- C64U C101G — higher, -1.69
- G69C A121U — higher, 0.369
- G69U C102G — higher, -2.76
- G69U A118G — higher, -0.0784
- C70G G77A G93A A100U A105G U106A — higher, -4.21
- C70A U87G — higher, -1.73
- G69C G122A — higher, -1.53
- C70G C79A A111C A119C — lower, -8.17
- G63U C73A A84U C86U A100G A111C — lower, -6.77
- C70A U96A — higher, -2.63
- C64U C104A G120A — higher, -0.809
- G69C G135A — higher, -1.9
- G69C G135U — higher, -2.29
- C70G C72G G110U — lower, -6.42
- A68G C114A — higher, -3.39
- C64A A66C C104A — lower, -6.61
- G69U A83U — higher, -0.34
- G69U C86G U96G C114A — higher, -2.17
- G69U U81C — higher, 0.131
- G69A C85A U106A U125A — higher, -5.49
- G69U C98A — higher, -2.07
- G69A C70U C124A — higher, -4.91
- C70A C85U G113A — higher, -3.33
- C70U C97U C123G U126A — higher, -0.00382
- A66U G69U C88G C99A A119G — higher, -5.79
- C70G C86U G110U G113C — lower, -6.29
- C64U C89U G117C — higher, -4.79
- A66U G93A A121G — higher, 0.349
- G63U C89U A90G U112A C123G — higher, 0.558
- A68G C80A — lower, -6.54
- C70G U92C — higher, -4.9
- G69A G120U U130A — higher, -2.09
- G69U A111G — higher, 1.89
- G69U C76G U133A — higher, -2.07
- G69C C88U — higher, -1.17
- G69A C101A U132A — higher, -3.65
- G69U C85A — higher, -1.08
- G63U G77U — higher, -3.54
- C70G G117U — higher, -4.3
- G69A C89U C123G — higher, -2.85
- G63U C85A G128A — higher, -4.29
- G69C G113A C114A U125A U133A — higher, -4.08
- G63U U81G C97U U106A G120A U133C — higher, -3.57
- C70A A90G — higher, -1.9
- C70U C82G C124A U130C — higher, 0.602
- C64G C70A G93A C101A G120A G127A U131G — lower, -6.32
- C70G A83G — higher, -4.15
- C70G A83C — higher, -2.96
- C64A G113C A118G — lower, -6.38
- G63U U78G U81A A118U U129C — higher, -4.83
- G69A — higher, -2.44
- G69U — higher, 0.48
- G69C — higher, -1.27
- G63U A105G — higher, -3.13
- G63U C86G A90U C104A G110U — lower, -6.48
- A66C U87G A118U U132A — higher, -0.678
- G69C C76U — higher, -4.07
- A68G U129A — higher, -4.01
- A68G U129G — higher, -4.32
- A66G C86G — higher, -1.77
- G69U G93U U109C — higher, -4.75
- G63U A111U — higher, -4.61
- C70A A84U — higher, -0.795
- G63U U133G — higher, -1.94
- C64U C82G C88U U131G — higher, -0.778
- G63U G128U — higher, -2.6
- G69C C123A — higher, -0.685
- C64U U87A U109C — higher, -5.61
- C64U U109A — higher, -4.01
- C70G C85A U106A U130A — higher, -4.47
- G69A C82U U112G — higher, -4.1
- G69U G113C G122C G127A U132A — higher, -4.29
- G69U C104A G113C — higher, -1.8
- C70U A90G — higher, -0.454
- C70U C80A — higher, -5.7
- G69C U96A — higher, -2.44
- C70A C89U — higher, -2.29
- C70A C99U — higher, -5.26
- G69U C104A — higher, -0.638
- G69U C104G — higher, -4.34
- A66G C124G — higher, 1.19
- G69C U81C C88U U106C — higher, -2.4
- C70G C124U G128C — higher, -3.97
- G69A U81G A84C G93U C97G U112A — lower, -6.86
- G69U C72U — higher, -0.304
- G69C A90C A91G A108C U112A — within 0.2 log units, -6.22
- U67C C82G A119G — within 0.2 log units, -5.87
- G69A C85U — higher, -3.69
- C64U C82G C89A U109A — higher, -5.15
- C70A U112A G113A — higher, -2.47
- G63U G93A — higher, -1.31
- C64G U112G G120A — within 0.2 log units, -5.95
- G69U C82G C89A — higher, -1.32
- C64U G117U — higher, -1.28
- G65C G69U C114G G117C C124U G128C — higher, -5.15
- G69A C70U — higher, -3.12
- C70A G110A U133A — higher, -3.64
- C64A C86A U112G — lower, -6.59
- G63U U87A — higher, -1.45
- G63U U87G — higher, -0.803
- G63U U92G G122A — higher, -5.14
- C70A C86A — higher, -2.39
- G69C U87A C123G — higher, -0.694
- A68U G120C — higher, -5.33
- A68U G120A — higher, -3.93
- C70U C82U A83C C89A G93A — higher, -4.1
- G69A U81A C124A — higher, -1.99
- G63U A108G — higher, -3.13
- A68G U112G — higher, -2.31
- C70U C88G U125G — higher, -1.36
- G69U G71U — higher, -0.811
- G69A G77A C86U U112A — higher, -2.89
- C70A C115U — higher, -2.84
- G69C G113U — higher, -4.51
- A66U U81G U116G C124A — higher, -5.38
- G69U A103C — higher, -1.85
- C70G C88U — higher, -2.98
- C70G C88A — higher, -4.74
- A68G G71A C101U — within 0.2 log units, -5.85
- G69A G77C C94U — higher, -4.05
- G69C C80U — higher, -2.38
- C70A G120A — higher, -0.62
- C70A U109G — higher, -5.72
- C70A U109C — higher, -4.18
- A66G G117C C124U U132A — the same, -6.03
- G69C C115A — higher, -0.724
- G69C C115U — higher, -1.75
- C64U A118G U129G — higher, -1.07
- C70U C79U G93U — higher, -2.15
- C70G C104U G127C — higher, -2.51
- C64U U96C U132A — higher, -0.407
- G63U U129C — higher, -1.11
- G69C C115U G128A — higher, -4.75
- A66U C73G — higher, -1.75
- A66C U133A — higher, -0.805
- C70A G128C — higher, -4.69
- G69A U106C C114A G120C — higher, -3.12
- C70G U130G U131G — higher, -4.28
- G69C U78C U106A — higher, -2.46
- C64U C104A — higher, -1.31
- A68U U109A U129G — lower, -7.47
- G69U G71A A75U A103U C124G — higher, -3.98
- C70G C115G — higher, -3.68
- G69U A103G U106A — higher, -4.7
- C64U C82U U106G — higher, -1.27
- C70U A75G — higher, -0.621
- C64U C123A — higher, -0.0204
- A66U C115A — higher, -1.05
- G69U U78C A84G G122A G128A — higher, -3.23
- G63U G120C — higher, 0.0622
- G63U C82U G127C — higher, -1.96
- G63U C97U — higher, -1.62
- C70A U81C C88A G120U — higher, -3.19
- C70A C88G U125G — higher, -3.18
- C70G C72U — higher, -2.61
- G69U C94U — higher, 1.7
- C70G A90C C114U A121G — higher, -4.76
- G65A G120C U129A U132C — lower, -6.78
- G69U C88A G127C U131A — higher, -2.72
- C70A C101A — higher, -2.43
- C70U A111G — higher, 0.0643
- G69A G135A — higher, -3.3
- G69A U92A — lower, -6.38
- A68U U130C — higher, -5.02
- G63U C85G G113A — higher, -2.68

Source: the RNAGym collection of RNA variant scans (doi:10.1073/pnas.2313332121)
